The numbers were not newly measured in paper PMC11209772, which cites them from elsewhere.

pKd: −log10 of the molar value. Where “and” joins values, the source holds several entries; their conditions need not be identical. Equal entries are not always repeated. Where two headings read alike, the source gives them in different places.

Data set [1] concerns the target SSB-Ct peptide (Escherichia coli) (UniProt P0AGE0). Briefly: FP.
Data set [2] has as its target SSB (Escherichia coli) (UniProt P0AGE0). The data set is described as follows: ITC.
Data set [3] addresses SSB-Ct peptide SSB-Ct (Escherichia coli) (UniProt P0AGE0). The data set is described as follows: ITC.
Data set [4] has as its target SSB (Escherichia coli) (UniProt P0AGE0). Briefly: SPR.
The target in data set [5] is SSB C-terminal peptide C-terminal 15 residues (Escherichia coli) (UniProt P0AGE0). The data set is described as follows: SPR.
Data set [6] deals with SSB-Ct peptide SSB-Ct (Escherichia coli) (UniProt P0AGE0). The data set is described as follows: FP.
Data set [7] addresses SSB (Escherichia coli) (UniProt P0AGE0).
For data set [8], the target named is SSB-Ct peptide SSB-Ct (Escherichia coli) (UniProt P0AGE0).
Data set [9] addresses SSB (Escherichia coli) (UniProt P0AGE0). The data set is described as follows: FP.

On to ExoI (from UniProt P04995), for which, in data set [1], the pKd is 6.87.

With RNase HI (from UniProt P0A7Y4), in data set [2], the pKd was 5.70.

For the substance PriC (from UniProt P23862), in data set [3], the negative logarithm of the Kd (pKd) was 6.17 and 5.43.

On to RarA (from UniProt P0AAZ4), for which the pKd in data set [4] was 6.44.

Turning to PriA (from UniProt P17888), the pKd in [5] was 5.62.

Pol III χψ (from UniProt P28905): the pKd in data set [4] is 5.57.

RecO (from UniProt P0A7H3): in data set [6], the negative logarithm of the Kd (pKd) is 7.22.

“DNA polymerase III subunit chi (from UniProt P28905)”: in data set [7], the negative logarithm of the Kd (pKd) was 6.48.

As to RecQ (from UniProt P15043), the pKd in data set [2] is 5.22.

Regarding UDG (from UniProt P12295), the pKd in data set [4] is 6.77.

Regarding RadD (from UniProt P33919), the pKd in [8] and in data set [1] was 5.27 in each case.

In the case of DNA polymerase IV (from UniProt Q47155), the pKd in [9] is 5.70.
